The values below come from patent US20220235109A1 (CUGENE, published 2022).

The target in experiment [1] is T1, PD1 expressed on cell surface (UniProt Q15116 25-288, limits assumed).
T1 construct: whole, on cells; also called PD-1-expressing cells; cell surface expressed PD-1
The experiment is described as follows: FACS on PD-1-expressing cells.

Experiment [2] deals with T2, recombinant IL-2Rβγ heterodimer (human).
T2 construct: IL-2Rβ ECD at the N-terminus of Fc hole chain, γc ECD at the N-terminus of Fc knob chain; also called recombinant IL-2Rβγ protein; dimeric IL-2Rβγ receptor
T2 chain 1: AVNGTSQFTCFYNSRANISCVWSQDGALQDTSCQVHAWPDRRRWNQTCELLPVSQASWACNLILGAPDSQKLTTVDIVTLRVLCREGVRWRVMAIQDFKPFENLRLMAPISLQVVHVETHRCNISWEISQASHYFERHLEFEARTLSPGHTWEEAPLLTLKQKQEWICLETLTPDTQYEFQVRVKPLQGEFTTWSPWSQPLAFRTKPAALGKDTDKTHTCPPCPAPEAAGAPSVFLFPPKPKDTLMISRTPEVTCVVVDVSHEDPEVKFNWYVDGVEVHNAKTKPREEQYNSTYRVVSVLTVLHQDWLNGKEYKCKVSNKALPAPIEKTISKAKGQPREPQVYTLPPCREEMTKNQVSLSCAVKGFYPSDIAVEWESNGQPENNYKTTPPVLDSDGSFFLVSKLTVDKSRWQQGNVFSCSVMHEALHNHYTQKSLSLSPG
T2 chain 2: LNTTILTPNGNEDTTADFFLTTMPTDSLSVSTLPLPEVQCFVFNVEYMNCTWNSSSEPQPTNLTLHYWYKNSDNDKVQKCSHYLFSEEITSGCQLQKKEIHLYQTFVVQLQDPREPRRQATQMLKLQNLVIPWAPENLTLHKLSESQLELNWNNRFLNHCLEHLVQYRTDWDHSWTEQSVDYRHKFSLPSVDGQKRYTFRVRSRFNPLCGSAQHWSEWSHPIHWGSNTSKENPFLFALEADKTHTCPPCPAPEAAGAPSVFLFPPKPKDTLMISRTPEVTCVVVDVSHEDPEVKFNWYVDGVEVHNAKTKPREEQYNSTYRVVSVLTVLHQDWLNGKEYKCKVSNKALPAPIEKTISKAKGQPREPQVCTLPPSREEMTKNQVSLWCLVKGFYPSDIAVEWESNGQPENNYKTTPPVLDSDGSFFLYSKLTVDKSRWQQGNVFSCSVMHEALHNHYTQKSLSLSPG
Nature of the experiment: ELISA, IL-2Rβγ-Fc heterodimer coated. As for the experimental part: After overnight incubation at 4° C. and blocking with 1% BSA, 3-fold serial dilutions of IL-2 Fc fusion proteins starting at 10 nM were added to each well at 100 μl/well. […] Subsequently, 100 μl/well of streptavidin-HRP (1:5000 diluted in diluent) were added to each well and incubated at room temperature for 40 min. Wells were thoroughly aspirated and washed three times with PBS/0.05% Tween-20 following each step. Finally, 100 μl TMB substrate was added to each well; the plate was developed at room temperature in the dark for 10 minutes, and 100 μl/well of stop solution (2N Sulfuric acid, Ricca Chemical) was added. Absorbance was determined at 450 nm and curves were fit using Prism software (GraphPad).

T1 sequence (Q15116 25-288 limits assumed): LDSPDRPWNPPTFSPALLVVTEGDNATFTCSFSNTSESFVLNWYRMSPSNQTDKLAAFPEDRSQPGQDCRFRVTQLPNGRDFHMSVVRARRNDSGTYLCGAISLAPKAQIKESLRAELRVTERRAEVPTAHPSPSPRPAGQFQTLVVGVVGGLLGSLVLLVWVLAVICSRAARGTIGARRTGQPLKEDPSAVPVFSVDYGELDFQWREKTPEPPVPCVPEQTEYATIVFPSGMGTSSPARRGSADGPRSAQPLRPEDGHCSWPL

B1: P-0759 (Fc fusion)
chain 1: DKTHTCPPCPAPEAAGAPSVFLFPPKPKDTLMISRTPEVTCVVVDVSHEDPEVKFNWYVDGVEVHNAKTKPREEQYNSTYRVVSVLTVLHQDWLNGKEYKCKVSNKALPAPIEKTISKAKGQPREPQVCTLPPSREEMTKNQVSLWCLVKGFYPSDIAVEWESNGQPENNYKTTPPVLDSDGSFFLYSKLTVDKSRWQQGNVFSCSVMHEALHNHYTQKSLSLSPGGGGSGGGSAPTSSSTKKTQLQLEHLLQDLQMILNGINNYKNPKLTRMLTFKFYMPKKATELKHLQCLEEELKRLEEVLNLAQSKNFHLRPRDLISNINVIVLELKGSETTFMCEYADETATIVEFLNRWITFIQSIISTLT
chain 2: DKTHTCPPCPAPEAAGAPSVFLFPPKPKDTLMISRTPEVTCVVVDVSHEDPEVKFNWYVDGVEVHNAKTKPREEQYNSTYRVVSVLTVLHQDWLNGKEYKCKVSNKALPAPIEKTISKAKGQPREPQVYTLPPCREEMTKNQVSLSCAVKGFYPSDIAVEWESNGQPENNYKTTPPVLDSDGSFFLVSKLTVDKSRWQQGNVFSCSVMHEALHNHYTQKSLSLSPG
notes: knob chain carries the IL-2 variant; hole-Fc; monovalent; also called IL-2 L19Q/P65R/S125I monovalent Fc fusion
In the case of B1, the results for the binding result in experiment [1] and in experiment [2] were “no binding” and “binds”, respectively.
